From paper PMC5709738 (The EMBO Journal, 2017)

What was measured:
[1] = dynamic light scattering; type: physicochemical; settings: DLS at 15 °C, ~21 µM (assuming COMA dimer) or similar concentrations
[2] = target: T1, fluorescently labelled full-length Ctf19-Mcm21 (Kluyveromyces lactis, UniProt Q6CRN7+Q6CVQ9); assay: microscale thermophoresis (MST) of Okp1-derived peptides with full-length Ctf19-Mcm21; type: binding, K. lactis; settings: NT.115 Monolith, 22–25 °C, ~27 nM NT-647-labelled Ctf19-Mcm21, ITC/MST buffer pH 7.5, thermophoresis + T jump, mean and 68% confidence interval, three independent experiments
T1 construct: we purified full-length K. lactis; NT-647-NHS red fluorescent dye on lysine side chains (chemical label); made in house; host or cells: Escherichia coli BL21 Rosetta 2(DE3)pLysS
T1 sequence (Q6CRN7 1-270): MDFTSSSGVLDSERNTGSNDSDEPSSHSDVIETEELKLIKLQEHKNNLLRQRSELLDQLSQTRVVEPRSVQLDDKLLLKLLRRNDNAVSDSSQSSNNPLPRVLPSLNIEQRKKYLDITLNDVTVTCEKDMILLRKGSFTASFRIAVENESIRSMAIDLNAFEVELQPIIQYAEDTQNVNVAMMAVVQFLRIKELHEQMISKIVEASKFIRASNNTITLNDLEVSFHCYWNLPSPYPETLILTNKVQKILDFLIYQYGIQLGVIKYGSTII
T1 sequence (Q6CVQ9 1-293): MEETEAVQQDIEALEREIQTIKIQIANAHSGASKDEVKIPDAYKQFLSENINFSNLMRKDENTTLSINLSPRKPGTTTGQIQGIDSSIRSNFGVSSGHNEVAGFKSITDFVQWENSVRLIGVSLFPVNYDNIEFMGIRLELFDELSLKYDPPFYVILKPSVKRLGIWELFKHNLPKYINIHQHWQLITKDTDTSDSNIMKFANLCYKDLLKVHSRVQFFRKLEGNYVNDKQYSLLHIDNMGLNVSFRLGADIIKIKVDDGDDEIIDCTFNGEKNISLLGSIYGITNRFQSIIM

[3] = target: T2, Nkp1-Nkp2 heterodimer (K. lactis) (Kluyveromyces lactis, UniProt Q6CPR4 1-210; Q6CSR8 1-151); assay: SEC; analytical SEC of purified K. lactis samples alone and combined, Superdex 200 10/300, 4°C; fractions on SDS-PAGE; settings: both partners purified
T2 construct: Nkp1 of Kluyveromyces lactis; Nkp2 of Kluyveromyces lactis; also called NN; source: E. coli BL21 Rosetta 2(DE3)pLysS, purified
T2 sequence (looked up) 1: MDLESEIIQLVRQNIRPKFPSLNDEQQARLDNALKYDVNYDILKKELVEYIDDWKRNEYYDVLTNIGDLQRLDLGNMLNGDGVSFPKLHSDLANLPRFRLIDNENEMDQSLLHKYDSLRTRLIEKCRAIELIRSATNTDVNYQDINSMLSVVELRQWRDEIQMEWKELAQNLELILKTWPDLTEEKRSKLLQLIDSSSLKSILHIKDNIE
T2 sequence (looked up) 2: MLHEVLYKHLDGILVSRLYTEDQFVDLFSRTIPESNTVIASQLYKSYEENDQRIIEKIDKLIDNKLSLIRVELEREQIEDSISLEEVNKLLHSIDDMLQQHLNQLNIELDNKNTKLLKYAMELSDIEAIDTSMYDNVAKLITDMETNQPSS

[4] = target: the molecule itself; assay: native MS; nanoflow spectra and tandem mode with collision-induced dissociation in the gas phase (argon); subassemblies stripped of subunits

In the case of “COMA-Nkp1-Nkp2: reconstituted COMA bound with Nkp1-Nkp2”, the “hydrodynamic radius (Rh)” value [1] is reported as 13.7 nm.

For “N330A-K332P: Okp1 peptide variant differing in two residue positions (SNEIYQQDKIDFALPLKTDF)”, the “dissociation constant (Kd)” value [2] was “no detectable binding”.

B1: Okp1_229-383 (K. lactis) (domain or fragment, Kluyveromyces lactis, UniProt Q6CJY0 229-383, looked up)
chain: DNLNMEYIYAKGESIKKRYKSELDRAEAIERQLIREEEHLKSLQEKGETQAKKRKQVLSKELSELSKTMHPSLSVALSNTFGLIKDDKMSNEIYQQDKIDFNLKLKTDFSKPLISEKEENSLNGLTNAMDNNRELVNEIFGKISALLQPKKNSNE
notes: also called Okp1 variant with segments 1, 2 and 3; source: E. coli BL21 Rosetta 2(DE3)pLysS, co-expressed with Ctf19_D-RWD and Mcm21_D-RWD, purified
B1: binds [3].

B2: Ame1-Okp1 (K. lactis, full length) (complex, Kluyveromyces lactis)
chain 1: MDALKQRHLKLLYRQRGSASRTIDYDVVIEPELREDGDLVTDSQLTEQDDQSFPDIQVPSPDRVDDFDLNQGDGLMDKATANEDDIDHVIGDEVAAVNAPVETSDLVIDTTQFDSMTLSQLSTPLTSMATIDVLRRLLETVILVTIEERTSQFNRAGSARLRLKLKLEIKILTWFLHQSKEDLITISELNLSNNDLLYRLKQISLLKNSLSRSLLDVRSAISSYEGPNNALSEEQVALQNFKRINELILSQRIDTIINNNLPPDTSTFDTESKKGLLPTLKTLNESLQNTIG
chain 2: MSKRYLDDVLSPDTGTSDSDSSIENLNADNYRIDIVNDNARRDDIDRIQSSNLNHEPPYNLEGVFAIDDDEHGDEMVRKDSDRRQDITEDNDDSFVPDITTPPRERKRVRFGINEKGGDEEFNNVSPWDFKRLIRKFYKEQLPDTYQIRNWKRPSKDMLTNFIDLIENNIELASEEVFKQYHQELNQLYPDSEEQAKLKDSLENKVFDTTYNIKKRLKRTKVPSKIWVDNLNMEYIYAKGESIKKRYKSELDRAEAIERQLIREEEHLKSLQEKGETQAKKRKQVLSKELSELSKTMHPSLSVALSNTFGLIKDDKMSNEIYQQDKIDFNLKLKTDFSKPLISEKEENSLNGLTNAMDNNRELVNEIFGKISALLQPKKNSNE
notes: Ame1 of Kluyveromyces lactis; Okp1 of Kluyveromyces lactis; stands as the Ame1-Okp1 part of COMA; also called Okp1-Ame1; source: E. coli BL21 Rosetta 2(DE3)pLysS, co-expressed with Ctf19 and Mcm21 versions
B2: binds [4].
